Target: full-length talin1 purified from turkey gizzard (turkey)
Assay: electron microscopy single-particle 3D reconstruction

stoichiometry N: 2
Substance: full-length talin1 purified from turkey gizzard

From article PMC3799832
